We go through twelve sequences from the Immune Epitope Database (IEDB).

In one test the target is HLA-B*48:01. Kind of test: IEDB peptide-MHC binding, purified MHC/competitive/fluorescence; filed as Kd, often an IC50 or EC50 that approximates it; ≥ and ≤ were set here for values at or beyond the usual limits of such assays. The note with it: source organism: Escherichia coli B171.
The target in test [1] is HLA-A*01:01. In words: IEDB peptide-MHC binding, purified MHC/direct/fluorescence; filed as Kd, often an IC50 or EC50 that approximates it; ≥ and ≤ were set here for values at or beyond the usual limits of such assays. The conditions noted are these: source organism: Mammarenavirus lassaense.
In a further test the target is HLA-A*80:01. Described as above.
A further test concerns the target HLA-B*07:02. Kind of test: IEDB peptide-MHC binding, purified MHC/competitive/fluorescence; filed as Kd, often an IC50 or EC50 that approximates it; ≥ and ≤ were set here for values at or beyond the usual limits of such assays. The conditions noted are these: source organism: Yersinia pestis Nepal516.
Another test concerns the target HLA-B*35:01. Described as above. The conditions noted are these: source organism: Yersinia pestis Nepal516.
The target of the next test is HLA-B*08:01. The test is described as above. The note with it: source organism: Yersinia pestis Nepal516.
In the next test the target is HLA-B*51:01. Described as above. The note with it: source organism: Yersinia pestis Nepal516.
For a further test, the target named is HLA-B*15:01. The description is as above. The conditions noted are these: source organism: Yersinia pestis Nepal516.
In the next test the target is HLA-B*15:02. Described as above. The note with it: source organism: Yersinia pestis Nepal516.
Another test addresses HLA-B*46:01. The description is as above. The conditions noted are these: source organism: Yersinia pestis Nepal516.
The target of the next test is HLA-C*07:02. In words: IEDB peptide-MHC binding, purified MHC/direct/fluorescence; filed as Kd, often an IC50 or EC50 that approximates it; ≥ and ≤ were set here for values at or beyond the usual limits of such assays.
The target in another test is HLA-B*27:05. Kind of test: IEDB peptide-MHC binding, cellular MHC/competitive/radioactivity; ≥ and ≤ were set here for values at or beyond the usual limits of such assays. The note with it: source organism: Hepacivirus hominis.
Test [2] has as its target HLA-A*01:01. In words: IEDB peptide-MHC binding, purified MHC/competitive/fluorescence; filed as Kd, often an IC50 or EC50 that approximates it; ≥ and ≤ were set here for values at or beyond the usual limits of such assays. The conditions noted are these: source organism: Rattus norvegicus.
Another test deals with HLA-A*29:02. The test is described as above. The conditions noted are these: source organism: Rattus norvegicus.
A further test has as its target HLA-B*39:01. The test is described as above. The conditions noted are these: source organism: Yersinia pestis Nepal516.
A further test concerns the target HLA-B*45:06. The description is as above.
The next test deals with HLA-C*06:02. The test is described as above. The note with it: source organism: Yersinia pestis Nepal516.
The next test concerns the target HLA-B*83:01. Described as above.
Another test deals with HLA-B*15:42. Described as above.
Another test concerns the target HLA-B*27:20. Described as above.
In the next test the target is HLA-C*12:03. In words: IEDB peptide-MHC binding, purified MHC/direct/fluorescence; filed as Kd, often an IC50 or EC50 that approximates it; ≥ and ≤ were set here for values at or beyond the usual limits of such assays. The conditions noted are these: source organism: Yersinia pestis Nepal516.
The target in the next test is HLA-C*03:03. The test is described as above. The conditions noted are these: source organism: Yersinia pestis Nepal516.
Another test deals with HLA-C*15:02. The test is described as above. The note with it: source organism: Yersinia pestis Nepal516.
A further test concerns the target HLA-A*24:02. Kind of test: IEDB peptide-MHC binding, purified MHC/competitive/fluorescence; filed as Kd, often an IC50 or EC50 that approximates it; ≥ and ≤ were set here for values at or beyond the usual limits of such assays.
Test [3] deals with HLA-C*04:01. The test is described as above. The note with it: source organism: Yersinia pestis Nepal516.
The next test has as its target HLA-A*03:19. The description is as above. The conditions noted are these: source organism: Yersinia pestis Nepal516.
The target of a further test is HLA-A*32:15. The description is as above. The note with it: source organism: Yersinia pestis Nepal516.
For another test, the target named is HLA-C*14:02. Described as above. The note with it: source organism: Yersinia pestis Nepal516.
Another test deals with HLA-A*68:23. The description is as above. The note with it: source organism: Yersinia pestis Nepal516.
The next test concerns the target HLA-A*32:07. The description is as above. The note with it: source organism: Yersinia pestis Nepal516.
For the next test, the target named is HLA-A*02:06. Kind of test: IEDB peptide-MHC binding, purified MHC/competitive/radioactivity; filed as Kd, often an IC50 or EC50 that approximates it; ≥ and ≤ were set here for values at or beyond the usual limits of such assays. The conditions noted are these: source organism: Trypanosoma cruzi.
The target in another test is HLA-A*02:02. The test is described as above. The conditions noted are these: source organism: Trypanosoma cruzi.
The target in another test is HLA-A*68:02. The test is described as above. The conditions noted are these: source organism: Trypanosoma cruzi.
For the next test, the target named is HLA-A*02:03. The description is as above. The conditions noted are these: source organism: Trypanosoma cruzi.
The next test addresses HLA-A*02:01. Kind of test: IEDB peptide-MHC binding, purified MHC/competitive/radioactivity; ≥ and ≤ were set here for values at or beyond the usual limits of such assays. The conditions noted are these: source organism: Trypanosoma cruzi.
Test [4] concerns the target HLA-C*04:01. In words: IEDB peptide-MHC binding, purified MHC/direct/fluorescence; filed as Kd, often an IC50 or EC50 that approximates it; ≥ and ≤ were set here for values at or beyond the usual limits of such assays. The conditions noted are these: source organism: Entamoeba dispar SAW760.
A further test has as its target HLA-B*73:01. In words: IEDB peptide-MHC binding, purified MHC/competitive/fluorescence; filed as Kd, often an IC50 or EC50 that approximates it; ≥ and ≤ were set here for values at or beyond the usual limits of such assays. The conditions noted are these: source organism: Salmonella enterica subsp. enterica serovar Typhimurium str. LT2.
The mark [5] stands for this setting: source organism: Yersinia pestis Nepal516.
Setting [6] is: source organism: Entamoeba dispar SAW760.
The mark [7] stands for this setting: source organism: Human herpesvirus 4 strain B95-8.

pIC50, pKd: −log10 of the molar value. Some results are limits rather than exact numbers.

The term pKd denotes the negative decadic logarithm of the Kd, by convention in mol/L. Sequence RQNLSSSEL gave a pKd with HLA-B*48:01 of 6.72.
For the sequence YENAVWDQY, the pKd with HLA-A*01:01 [1] is 6.27; with HLA-A*80:01 (source organism: Mammarenavirus lassaense) it was 6.33.
As for LPFLKSLAI, the pKd with HLA-B*07:02 is 7.90; in the test with HLA-B*35:01 it was 7.34; in the test with HLA-B*08:01, 6.98; with HLA-B*51:01, 6.08; with HLA-B*15:01, not above 4.70.
Consider HLIQNPNPF, for which the pKd in the test with HLA-B*07:02 is 5.19; with HLA-B*15:02 it was 7.76; with HLA-B*35:01, 7.56; with HLA-B*46:01, 5.09; in the test with HLA-B*15:01, 7.51; with HLA-C*07:02 (setting [5]), 6.20.
Usually pIC50 stands for −log10 of the IC50, conventionally taken in molar units. Regarding ARMILMTHF, in the test with HLA-B*27:05, the pIC50 is 8.96.
FFGETSHNY: the negative-log Kd (pKd) is not above 4.70 with HLA-A*01:01 [2], not below 10.00 in the test with HLA-A*29:02 and not above 4.70 in the test with HLA-A*80:01 (source organism: Mus musculus).
Consider YRYCHQLAL, for which the negative-log Kd (pKd) with HLA-B*39:01 was 8.92; in the test with HLA-B*45:06 (setting [5]) it was not above 5.30; with HLA-C*06:02, 8.74; with HLA-B*83:01 (setting [5]), not above 5.30; with HLA-B*15:42 (setting [5]), not above 5.30; with HLA-B*27:20 (setting [5]), 9.70. Also, the pKd with HLA-C*07:02 (setting [5]) was 7.41; with HLA-C*12:03, 6.69; in the test with HLA-C*03:03 it was 6.79; with HLA-C*15:02, not above 4.70.
Take FYFNWNTPI: the pKd with HLA-A*24:02 (setting [5]) is not below 10.00; with HLA-C*04:01 [3], 6.52; in the test with HLA-A*03:19, 5.85; with HLA-A*32:15, 8.14; with HLA-C*14:02, not below 10.00; in the test with HLA-B*45:06 (setting [5]), not above 5.30. Further, the pKd is 7.63 in the test with HLA-A*68:23; 7.47 in the test with HLA-C*06:02; 9.70 with HLA-A*32:07; not above 5.30 with HLA-B*15:42 (setting [5]); 5.97 with HLA-C*15:02.
Regarding FLSHNFTLV, the pKd is 9.35 with HLA-A*02:06, 10.33 with HLA-A*02:02, 7.57 with HLA-A*68:02 and 10.63 with HLA-A*02:03. Further, the pIC50 in the test with HLA-A*02:01 is 9.21.
For the sequence YYSNKVFPI, the results for the pKd in the test with HLA-A*24:02 (setting [6]), with HLA-C*07:02 (setting [6]) and in the test with HLA-C*04:01 [4] were not below 10.00, 6.61 and not above 4.70, respectively.
Consider WRLYSPPPV, for which the pKd with HLA-B*73:01 was 6.93.
As to RRAALSGHL, the pKd with HLA-B*45:06 (setting [7]) is not above 5.30; with HLA-B*83:01 (setting [7]) it was not above 5.30; in the test with HLA-B*15:42 (setting [7]), not above 5.30; with HLA-B*27:20 (setting [7]), 9.70.
